Laboratory results reported in patent US20250051463A1 (AstraZeneca / MedImmune, published 2025).

Legend:
[1] = target: T1, human CD123 (IL3Rα) on cells (human, UniProt P26951 19-378); test: flow cytometry on THP-1 CD123(+dox) cells, Geo MFI
T1 construct: whole, on cells; also called human IL3Rα expressed on 293 cells; AD293hIL3Rα
Experimental: (§1) THP-1 cells were transfected with an IL3Rα expression construct under the control of a doxycycline inducible promoter. THP-1 cells were maintained in DMEM containing 10% heat-inactivated fetal bovine serum (FBS) and were cultured in a humidified atmosphere of 5% CO₂ and at a temperature of 37° C. […] (Dox) inducible cells were stimulated with 1 μg/ml dox overnight before use. […] On the day of plating, cells were spun down at 1500 rpm for 3 minutes, counted, and resuspended to a final concentration of 1×10⁶ cells/ml. Two hundred μl of cells were plated in wells of 96 well microtiter plates. The plates were spun down at 1500 rpm for 3 minutes and flicked to remove media. One hundred μl of FACS buffer (PBS+2% FBS) was added to each well. […] The antibody concentration started at 12 μg/ml followed by six 1:3 dilutions (no antibody control was also run). The plates were incubated at 4° C. for 30 minutes. Following incubation, the plates were washed 3 times by spinning down at 1500 rpm for 3 minutes, flicked and 100 μl of FACs buffer was added. Alexa 647 secondary antibody (goat anti-human IgG (H+L)) was added at 1:1000 dilution in 100 μl followed by 30 minute 4° C. incubation. The plates were washed as above. […] Cells were analyzed on a BD Bioscience LSRII by collecting 10,000 cells. Flow data was analyzed in FlowJo software.

[2] = target: T1, human CD123 (IL3Rα) on cells; test: flow cytometry on THP-1 CD123 (no dox) cells, Geo MFI
Experimental: as §1

[3] = target: T2, human IL3Rα (CD123), sample in solution for biolayer interferometry (human, UniProt P26951 19-305, limits assumed); test: biolayer interferometry (Octet RED384), antibody on AHC sensor, hIL3-Rα 10-0.16 µg/mL in solution, 1:1 fit
T2 construct: Soluble analyte in the Octet assay; also called hIL3-Rα; hIL3Rα
T2 sequence (looked up): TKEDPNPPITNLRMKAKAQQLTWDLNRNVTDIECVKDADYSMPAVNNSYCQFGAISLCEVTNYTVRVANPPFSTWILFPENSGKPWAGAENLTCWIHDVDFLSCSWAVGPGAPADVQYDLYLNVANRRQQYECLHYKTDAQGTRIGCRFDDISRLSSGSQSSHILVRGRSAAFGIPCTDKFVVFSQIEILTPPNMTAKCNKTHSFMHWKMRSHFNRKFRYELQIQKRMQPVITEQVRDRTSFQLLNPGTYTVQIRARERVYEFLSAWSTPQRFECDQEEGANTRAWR
Experimental: Biolayer interferometry binding experiments were performed using an Octet RED384 instrument, with all measurements made at 30° C. AHC biosensor probes were soaked in kinetics buffer (PBS pH 7.2+0.02% Tween-20, 0.1% BSA, 0.05% sodium azide) for 10 minutes, followed by baseline signal measurement in kinetics buffer for 60 seconds. […] For binding to hIL3-Rα, the antibody-loaded biosensor tips were dipped in binding buffer for 60 sec (baseline), followed by immersion in a solution containing dilutions of hIL3-Rα (10-0.16 μg/mL) for 300 sec (association), and subsequent immersion in kinetics buffer for 400 sec (dissociation). For binding to hIL5-Rα and GM-CSFRa, all steps were the same except the concentration of antigen was increased (50-1.56 μg/mL) and the dissociation step was decreased to 300 sec. The signal from a buffer only reference sample was subtracted, and all curves were fit with a 1:1 binding model to determine KD values.

T1 sequence (P26951 19-378): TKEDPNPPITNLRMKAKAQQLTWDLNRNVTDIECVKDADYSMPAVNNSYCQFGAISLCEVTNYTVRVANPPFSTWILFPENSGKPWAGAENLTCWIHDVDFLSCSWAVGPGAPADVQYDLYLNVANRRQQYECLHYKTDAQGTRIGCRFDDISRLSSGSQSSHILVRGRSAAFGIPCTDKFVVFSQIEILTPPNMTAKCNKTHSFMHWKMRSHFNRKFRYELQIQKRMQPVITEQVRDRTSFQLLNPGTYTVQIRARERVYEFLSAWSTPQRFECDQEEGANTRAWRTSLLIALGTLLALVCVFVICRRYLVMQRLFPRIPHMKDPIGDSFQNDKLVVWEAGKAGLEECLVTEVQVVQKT

B1: HT12-GL antibody (antibody, human IgG1, kappa, V domains shown)
VH: EVQLLESGGGLVQPGGSLRLSCAASGFTFNIYAMTWVRQAPGKGLEWVSGISAGGDSTYYADSVKGRFTISRDNSKNTLYLQMNSLRAEDTAVYYCAKDRGYYYGMDVWGQGTTVTVSS
VL: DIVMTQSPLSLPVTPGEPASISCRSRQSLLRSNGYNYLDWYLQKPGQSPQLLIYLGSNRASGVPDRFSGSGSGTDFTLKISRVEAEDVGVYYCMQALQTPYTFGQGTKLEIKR
notes: elsewhere unlabeled with a secondary antibody; also called HT12-GL mAb; CD123 mAb
- EC50 (read off the curve) [1]: ~0.3 µg/mL
- EC50 (read off the curve) [2]: ~0.2 µg/mL
- Kd [3]: 0.31 nM
